Assay results taken from article PMC8684761 (Molecular Biology of the Cell, 2021).

Target: T1, 6His-She1 C-terminal fragment (residues 194-338) (S. cerevisiae, UniProt P38200 194-338)
T1 sequence (looked up): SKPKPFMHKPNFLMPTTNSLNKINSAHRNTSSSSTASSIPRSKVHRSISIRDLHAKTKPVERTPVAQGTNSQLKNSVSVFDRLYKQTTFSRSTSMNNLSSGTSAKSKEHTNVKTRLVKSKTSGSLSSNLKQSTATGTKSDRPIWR
Experiment: pull-down

B1: peptide encompassing the C-terminus of Tub1 (amino acids 415-447), wild type (peptide)
peptide: not shown
B1: binds.
